# Data taken from article PMC7228847 (Cell host & microbe, 2020).
# B1: Recombinant human Fc-tagged SEMA6B extracellular domain (Fc fusion)
# chain: LFPEEPPPLSVAPRDYLNHYPVFVGSGPGRLTPAEGADDLNIQRVLRVNRTLFIGDRDNLYRVELEPPTSTELRYQRKLTWRSNPSDINVCRMKGKQEGECRNFVKVLLLRDESTLFVCGSNAFNPVCANYSIDTLQPVGDNISGMARCPYDPKHANVALFSDGMLFTATVTDFLAIDAVIYRSLGDRPTLRTVKHDSKWFKEPYFVHAVEWGSHVYFFFREIAMEFNYLEKVVVSRVARVCKNDVGGSPRVLEKQWTSFLKARLNCSVPGDSHFYFNVLQAVTGVVSLGGRPVVLAVFSTPSNSIPGSAVCAFDLTQVAAVFEGRFREQKSPESIWTPVPEDQVPRPRPGCCAAPGMQYNASSALPDDILNFVKTHPLMDEAVPSLGHAPWILRTLMRHQLTRVAVDVGAGPWGNQTVVFLGSEAGTVLKFLVRPNASTSGTSGLSVFLEEFETYRPDRCGRPGGGETGQRLLSLELDAASGGLLAAFPRCVVRVPVARCQQYSGCMKNCIGSQDPYCGWAPDGSCIFLSPGTRAAFEQDVSGASTSGLGDCTGLLRASLSEDRAGLVSVNLLVTSS
# B2: TcsL_(1285-1804) (domain or fragment)
# chain: TNVRINLDGNTRSFIVPVITTEQIRKNLSYSFYGSGGSYSLSLSPYNMNIDLNLVENDTWVIDVDNVVKNITIESDEIQKGELIENILSKLNIEDNKIILNNHTINFYGDINESNRFISLTFSILEDINIIIEIDLVSKSYKILLSGNCMKLIENSSDIQQKIDHIGFNGEHQKYIPYSYIDNETKYNGFIDYSKKEGLFTAEFSNESIIRNIYMPDSNNLFIYSSKDLKDIRIINKGDVKLLIGNYFKDDMKVSLSFTIEDTNTIKLNGVYLDENGVAQILKFMNNAKSALNTSNSLMNFLESINIKNIFYNNLDPNIEFILDTNFIISGSNSIGQFELICDKDKNIQPYFINFKIKETSYTLYVGNRQNLIVEPSYHLDDSGNISSTVINFSQKYLYGIDRYVNKVIIAPNLYTDEINITPVYKPNYICPEVIILDANYINEKINVNINDLSIRYVWDNDGSDLILIANSEEDNQPQVKIRFVNVFKSDTAADKLSFNFSDKQDVSVSKIISTFSLAA
# B3: Recombinant human Fc-tagged SEMA6A extracellular domain (Fc fusion)
# chain: GFPEDSEPISISHGNYTKQYPVFVGHKPGRNTTQRHRLDIQMIMIMNGTLYIAARDHIYTVDIDTSHTEEIYCSKKLTWKSRQADVDTCRMKGKHKDECHNFIKVLLKKNDDALFVCGTNAFNPSCRNYKMDTLEPFGDEFSGMARCPYDAKHANVALFADGKLYSATVTDFLAIDAVIYRSLGESPTLRTVKHDSKWLKEPYFVQAVDYGDYIYFFFREIAVEYNTMGKVVFPRVAQVCKNDMGGSQRVLEKQWTSFLKARLNCSVPGDSHFYFNILQAVTDVIRINGRDVVLATFSTPYNSIPGSAVCAYDMLDIASVFTGRFKEQKSPDSTWTPVPDERVPKPRPGCCAGSSSLERYATSNEFPDDTLNFIKTHPLMDEAVPSIFNRPWFLRTMVRYRLTKIAVDTAAGPYQNHTVVFLGSEKGIILKFLARIGNSGFLNDSLFLEEMSVYNSEKCSYDGVEDKRIMGMQLDRASSSLYVAFSTCVIKVPLGRCERHGKCKKTCIASRDPYCGWIKEGGACSHLSPNSRLTFEQDIERGNTDGLGDCHNSFVALNGHSSSLLPSTTTSDSTAQEGYESRGGMLDWKHLLDSPDSTDPLGAVSSHNHQDKKGVIRESYLKGHDQLVPVT
# Tests used:
# Test in all cases: BLI
# [1] = biological target: TcsL (Paeniclostridium sordellii lethal toxin), recombinant His-tagged, full length (Paeniclostridium sordellii strain 6018, UniProt Q46342)
# [2] = biological target: B3
# [3] = biological target: B1
Binder,Kd [1] [nM],binding result [2],binding result [3]
B1,~60,–,–
B2,–,binds,binds
B3,~40,–,–
